B4: Zwilch (natural protein)
chain: not shown

The target of assay [1] is ROD–Zwilch–ZW10 (RZZ) complex (human, UniProt P50748 1-2209; Q9H900 1-591; O43264 1-779). The assay is described as follows: AUC.
The assay “Zwilch” deals with B4. The assay is described as follows: SEC.
Assay [2] addresses T1, ROD^1–1,250 (human, UniProt P50748 1-1250).
T1 sequence (looked up): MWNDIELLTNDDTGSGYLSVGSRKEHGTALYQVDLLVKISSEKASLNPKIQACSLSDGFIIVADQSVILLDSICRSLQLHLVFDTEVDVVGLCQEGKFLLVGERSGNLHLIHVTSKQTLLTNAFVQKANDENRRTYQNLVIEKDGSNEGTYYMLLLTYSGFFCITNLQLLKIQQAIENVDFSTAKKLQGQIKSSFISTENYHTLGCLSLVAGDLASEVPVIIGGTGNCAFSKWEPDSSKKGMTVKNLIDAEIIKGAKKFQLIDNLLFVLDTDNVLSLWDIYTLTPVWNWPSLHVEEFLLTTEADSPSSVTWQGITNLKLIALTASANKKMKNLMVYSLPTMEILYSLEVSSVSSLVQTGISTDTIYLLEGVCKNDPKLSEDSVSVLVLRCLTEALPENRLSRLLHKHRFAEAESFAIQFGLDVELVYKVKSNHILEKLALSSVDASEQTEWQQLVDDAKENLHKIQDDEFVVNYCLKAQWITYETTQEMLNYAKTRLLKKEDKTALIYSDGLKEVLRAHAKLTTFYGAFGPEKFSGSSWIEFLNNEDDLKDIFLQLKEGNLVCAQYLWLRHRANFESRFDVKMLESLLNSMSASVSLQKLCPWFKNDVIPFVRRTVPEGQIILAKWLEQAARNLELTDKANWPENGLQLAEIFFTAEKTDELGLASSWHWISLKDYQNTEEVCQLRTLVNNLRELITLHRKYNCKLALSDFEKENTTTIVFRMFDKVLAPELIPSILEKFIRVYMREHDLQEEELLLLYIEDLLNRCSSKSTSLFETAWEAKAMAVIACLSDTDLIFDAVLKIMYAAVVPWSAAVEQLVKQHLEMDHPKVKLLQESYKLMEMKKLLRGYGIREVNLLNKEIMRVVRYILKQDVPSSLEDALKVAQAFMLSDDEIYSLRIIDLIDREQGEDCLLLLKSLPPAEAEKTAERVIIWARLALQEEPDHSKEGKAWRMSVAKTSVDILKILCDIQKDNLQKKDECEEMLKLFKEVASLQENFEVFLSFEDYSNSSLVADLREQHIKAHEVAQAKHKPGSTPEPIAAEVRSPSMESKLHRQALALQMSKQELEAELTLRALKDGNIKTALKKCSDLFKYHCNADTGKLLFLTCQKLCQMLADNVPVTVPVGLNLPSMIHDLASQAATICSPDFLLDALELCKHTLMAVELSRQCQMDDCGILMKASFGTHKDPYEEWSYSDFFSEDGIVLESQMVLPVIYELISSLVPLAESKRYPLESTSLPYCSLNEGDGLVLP
The assay is described as follows: negative-stain EM 3D reconstruction.

Assay [3] deals with T1, ROD^1–1,250. The assay is described as follows: co-expression and co-purification.

The source of these data is article PMC5379955 (The Journal of Cell Biology, 2017).

ROD–Zwilch–ZW10 (RZZ) complex, sequence (Q9H900 whole entry, one chain of several): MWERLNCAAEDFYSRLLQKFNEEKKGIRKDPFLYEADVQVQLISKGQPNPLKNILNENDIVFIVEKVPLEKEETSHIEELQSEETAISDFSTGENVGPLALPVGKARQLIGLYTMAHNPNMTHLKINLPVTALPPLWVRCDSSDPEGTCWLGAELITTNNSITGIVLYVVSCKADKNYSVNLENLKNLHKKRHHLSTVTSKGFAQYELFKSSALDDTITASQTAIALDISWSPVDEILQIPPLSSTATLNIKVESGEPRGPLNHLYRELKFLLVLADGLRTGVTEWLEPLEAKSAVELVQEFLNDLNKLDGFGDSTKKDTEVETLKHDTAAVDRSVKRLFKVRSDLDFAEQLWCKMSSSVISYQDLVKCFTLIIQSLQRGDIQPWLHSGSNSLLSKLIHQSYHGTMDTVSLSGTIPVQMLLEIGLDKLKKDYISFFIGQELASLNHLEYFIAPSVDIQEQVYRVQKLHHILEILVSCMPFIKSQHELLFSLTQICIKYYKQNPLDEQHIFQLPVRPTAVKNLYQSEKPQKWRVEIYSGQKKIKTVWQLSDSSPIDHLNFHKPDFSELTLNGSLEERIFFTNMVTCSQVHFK
Zwilch, sequence (Q9H900 whole entry): as the sequence (Q9H900 whole entry, one chain of several) above

B1: farnesylated Spindly (Spindly^Farn) (natural protein, human, UniProt Q96EA4 1-605, looked up)
chain: MEADIITNLRCRLKEAEEERLKAAQYGLQLVESQNELQNQLDKCRNEMMTMTESYEQEKYTLQREVELKSRMLESLSCECEAIKQQQKMHLEKLEEQLSRSHGQEVNELKTKIEKLKVELDEARLSEKQLKHQVDHQKELLSCKSEELRVMSERVQESMSSEMLALQIELTEMESMKTTLKEEVNELQYRQEQLELLITNLMRQVDRLKEEKEEREKEAVSYYNALEKARVANQDLQVQLDQALQQALDPNSKGNSLFAEVEDRRAAMERQLISMKVKYQSLKKQNVFNREQMQRMKLQIATLLQMKGSQTEFEQQERLLAMLEQKNGEIKHLLGEIRNLEKFKNLYDSMESKPSVDSGTLEDNTYYTDLLQMKLDNLNKEIESTKGELSIQRMKALFESQRALDIERKLFANERCLQLSESENMKLRAKLDELKLKYEPEETVEVPVLKKRREVLPVDITTAKDACVNNSALGGEVYRLPPQKEETQSCPNSLEDNNLQLEKSVSIYTPVVSLSPHKNLPVDMQLKKEKKCVKLIGVPADAEALSERSGNTPNSPRLAAESKLQTEVKEGKETSSKLEKETCKKLHPILYVSSKSTPETQCPQQ
modifications: farnesyl on Cys602
On to B1, for which, in assay [1], the “stoichiometry N” value is 2 copies of each subunit.

B2: mCherry–Spindly^Farn (natural protein, human, UniProt Q96EA4 1-605, looked up)
chain: MEADIITNLRCRLKEAEEERLKAAQYGLQLVESQNELQNQLDKCRNEMMTMTESYEQEKYTLQREVELKSRMLESLSCECEAIKQQQKMHLEKLEEQLSRSHGQEVNELKTKIEKLKVELDEARLSEKQLKHQVDHQKELLSCKSEELRVMSERVQESMSSEMLALQIELTEMESMKTTLKEEVNELQYRQEQLELLITNLMRQVDRLKEEKEEREKEAVSYYNALEKARVANQDLQVQLDQALQQALDPNSKGNSLFAEVEDRRAAMERQLISMKVKYQSLKKQNVFNREQMQRMKLQIATLLQMKGSQTEFEQQERLLAMLEQKNGEIKHLLGEIRNLEKFKNLYDSMESKPSVDSGTLEDNTYYTDLLQMKLDNLNKEIESTKGELSIQRMKALFESQRALDIERKLFANERCLQLSESENMKLRAKLDELKLKYEPEETVEVPVLKKRREVLPVDITTAKDACVNNSALGGEVYRLPPQKEETQSCPNSLEDNNLQLEKSVSIYTPVVSLSPHKNLPVDMQLKKEKKCVKLIGVPADAEALSERSGNTPNSPRLAAESKLQTEVKEGKETSSKLEKETCKKLHPILYVSSKSTPETQCPQQ
modifications: farnesyl on Cys602
Take B2: the “stoichiometry N” value in assay [1] is 2 copies of each subunit.

B3: ROD^Δ754–1,796 (domain or fragment, human)
chain: MWNDIELLTNDDTGSGYLSVGSRKEHGTALYQVDLLVKISSEKASLNPKIQACSLSDGFIIVADQSVILLDSICRSLQLHLVFDTEVDVVGLCQEGKFLLVGERSGNLHLIHVTSKQTLLTNAFVQKANDENRRTYQNLVIEKDGSNEGTYYMLLLTYSGFFCITNLQLLKIQQAIENVDFSTAKKLQGQIKSSFISTENYHTLGCLSLVAGDLASEVPVIIGGTGNCAFSKWEPDSSKKGMTVKNLIDAEIIKGAKKFQLIDNLLFVLDTDNVLSLWDIYTLTPVWNWPSLHVEEFLLTTEADSPSSVTWQGITNLKLIALTASANKKMKNLMVYSLPTMEILYSLEVSSVSSLVQTGISTDTIYLLEGVCKNDPKLSEDSVSVLVLRCLTEALPENRLSRLLHKHRFAEAESFAIQFGLDVELVYKVKSNHILEKLALSSVDASEQTEWQQLVDDAKENLHKIQDDEFVVNYCLKAQWITYETTQEMLNYAKTRLLKKEDKTALIYSDGLKEVLRAHAKLTTFYGAFGPEKFSGSSWIEFLNNEDDLKDIFLQLKEGNLVCAQYLWLRHRANFESRFDVKMLESLLNSMSASVSLQKLCPWFKNDVIPFVRRTVPEGQIILAKWLEQAARNLELTDKANWPENGLQLAEIFFTAEKTDELGLASSWHWISLKDYQNTEEVCQLRTLVNNLRELITLHRKYNCKLALSDFEKENTTTIVFRMFDKVLAPELIPSILEKFIRVYMREHDLQEEGGSGGGSGGGSGGGSGIHAAAKEIAEVNEINLEKVWDMLLEKWLCPSTKPGEKPSELFELQEDEALRRVQYLLLSRPIDYSSRMLFVFATSTTTTLGMHQLTFAHRTRALQCLFYLADKETIESLFKKPIEEVKSYLRCITFLASFETLNIPITYELFCSSPKEGMIKGLWKNHSHESMAVRLVTELCLEYKIYDLQLWNGLLQKLLGFNMIPYLRKVLKAISSIHSLWQVPYFSKAWQRVIQIPLLSASCPLSPDQLSDCSESLIAVLECPVSGDLDLIGVARQYIQLELPAFALACLMLMPHSEKRHQQIKNFLGSCDPQVILKQLEEHMNTGQLAGFSHQIRSLILNNIINKKEFGILAKTKYFQMLKMHAMNTNNITELVNYLANDLSLDEASVLITEYSKHCGKPVPPDTAPCEILKMFLSGLS
As for B3, in the assay with Zwilch, the binding result is given as “binds”. Regarding B4, the binding result with ROD^1–1,250 [2] and with ROD^1–1,250 [3] was “binds” in each case.

B5: ZW10 (natural protein, human, UniProt O43264 1-779, looked up)
chain: MASFVTEVLAHSGRLEKEDLGTRISRLTRRVEEIKGEVCNMISKKYSEFLPSMQSAQGLITQVDKLSEDIDLLKSRIESEVRRDLHVSTGEFTDLKQQLERDSVVLSLLKQLQEFSTAIEEYNCALTEKKYVTGAQRLEEAQKCLKLLKSRKCFDLKILKSLSMELTIQKQNILYHLGEEWQKLIVWKFPPSKDTSSLESYLQTELHLYTEQSHKEEKTPMPPISSVLLAFSVLGELHSKLKSFGQMLLKYILRPLASCPSLHAVIESQPNIVIIRFESIMTNLEYPSPSEVFTKIRLVLEVLQKQLLDLPLDTDLENEKTSTVPLAEMLGDMIWEDLSECLIKNCLVYSIPTNSSKLQQYEEIIQSTEEFENALKEMRFLKGDTTDLLKYARNINSHFANKKCQDVIVAARNLMTSEIHNTVKIIPDSKINVPELPTPDEDNKLEVQKVSNTQYHEVMNLEPENTLDQHSFSLPTCRISESVKKLMELAYQTLLEATTSSDQCAVQLFYSVRNIFHLFHDVVPTYHKENLQKLPQLAAIHHNNCMYIAHHLLTLGHQFRLRLAPILCDGTATFVDLVPGFRRLGTECFLAQMRAQKGELLERLSSARNFSNMDDEENYSAASKAVRQVLHQLKRLGIVWQDVLPVNIYCKAMGTLLNTAISEVIGKITALEDISTEDGDRLYSLCKTVMDEGPQVFAPLSEESKNKKYQEEVPVYVPKWMPFKELMMMLQASLQEIGDRWADGKGPLAAAFSSSEVKALIRALFQNTERRAAALAKIK
Take B5: the binding result with ROD^1–1,250 [2] and with ROD^1–1,250 [3] was “binds” throughout.
